# From patent US20250154215A1, “PHARMACEUTICAL COMPOSITION FOR TREATING COLITIS OR COLORECTAL CANCER COMPRISING COLON-TARGETED S100A8/A9-DERIVED SPECIFIC PEPTIDE” (Industry-University Cooperation Foundation Hanyang …, priority 2023, published 2025)
# Entries after “also recorded” stand apart in the source; their conditions may differ.
# Experiments:
# OxaR-HCT116 = assay: Co-IP and Western blot in parental and OxaR-HCT116 cells stimulated with rS100A8/9; format: cell-based
# Procedure: FIGS. 11A-11F show rCT-S100A8/A9 ameliorated oxaliplatin-resistant HCT116 xenograft tumor growth. […] Each vertical bar represents the mean±SD of cell viability at each dose. Data is shown as the mean±SD of six experiments. […] WCLs were used for IB including αTLR4, αRAGE, αS100A8, αS100A9, or αActin. […] HCT116 cells were injected subcutaneously into the flanks of nude mice. Tumor length and width were measured using calipers, and tumor volume was calculated every 3 days for 30 days. Representative images of tumors from mice treated with rCT-S100A8/9 on day 15 (middle). Statistical significance was determined by two-way analysis of variance (ANOVA) with Tukey's post hoc test. *P<0.05, ***P<0.001 compared to rVehicle. […] WCLs were used for IB including αTLR4, αRAGE, αS100A8, αS100A9, or αActin. […] Tumors were stained with H&E. Data is representative of seven independent experiments with similar results (FIGS. 11B, 11C, and 11E);
# 293T, BMDMs, and THP-1 cells were treated as indicated and processed for analysis by GST pulldown, Western blotting, and co-IP analysis. For GST pulldown, 293T cells were harvested and lysed in an NP-40 buffer including a complete protease inhibitor cocktail (Roche, Basel, Switzerland). After centrifugation, the supernatant was pre-cleared using protein A/G beads for two hours at 4° C. The pre-cleared lysates were mixed with a 50% slurry of glutathione-conjugated Sepharose beads (Amersham Biosciences, Amersham, UK), and binding reactions were performed for four hours at 4° C. by incubating the lysates at 4° C. The precipitate was extensively washed with a lysis buffer. Proteins bound to the glutathione beads were eluted by boiling for five minutes in a sodium dodecyl sulfate (SDS) loading buffer. For IP, cells were harvested and lysed in an NP-40 buffer supplemented with a complete protease inhibitor cocktail (Roche, Switzerland). After pre-clearing with protein A/G agarose beads for one hour at 4° C., whole cell lysates were used for IP using the indicated antibodies. Typically, 1 to […] of a commercial antibody was added to 1 ml of the cell lysate, and the resulting mixture was incubated for 8 to 12 hours at 4° C. After adding protein A/G agarose beads for six hours, immunoprecipitates were extensively washed with a lysis buffer and eluted with an SDS loading buffer by boiling for five minutes. For immunoblotting (IB), polypeptides were analyzed by SDS-polyacrylamide gel electrophoresis and transferred to polyvinylidene difluoride (PVDF) membranes (Bio-Rad, Hercules, CA, USA). Immunodetection was performed using specific antibodies. Antibody binding was visualized by chemiluminescence (ECL; Millipore, Burlington, MA, USA) and detected using a Vilber chemiluminescence analyzer (Fusion SL 3; Vilber Lourmat). […]
# [1] = The results of in vitro plasma stability, microsomal stability, CYP inhibition and PK profile of S100A8/A9 peptides and rCT-S100A8/A9 proteins
# Procedure: Table printed on a drawing sheet, Fig. 5B
# Title: The results of in vitro plasma stability, microsomal stability, CYP inhibition and PK profile of S100A8/A9 peptides and rCT-S100A8/A9 proteins
# The patent's description of the figure: FIGS. 5A and 5B show the drug-like properties of rCT-S100A8/A9. […] Bacteria-purified 6×His-rCT-S100A8/9, rVehicle or rCT was analyzed by Coomassie staining or IB using αHis (bottom, left). BMDMs were incubated with rVehicle, rCT, or rCT-S100A8/9 for the indicated times and at the indicated concentrations, and then cell viability was measured by MTT assay (bottom, right). […] HLM, human liver microsomes; CYP, cytochrome P450. aTmax, arrival time; AUClast, total area under the plasma concentration-time curve from time 0 to the time of the last measurement; Cmax, maximum plasma concentration;
# First reader's note: One record is the S100A8/A9 peptide and the other the recombinant rCT-S100A8/A9 protein; the CYP columns give remaining CYP isoform activity (CYP inhibition).
# [2] = DSS-induced chronic colitis mouse model; format: in vivo, mice
# Procedure: DSS-induced acute or chronic colitis and AOM/DSS CRC mouse models were prepared using 6-week-old C57BL/6 female mice (Samtako Bio, Osan, Korea). To assess the induction of acute colitis, mice were exposed ad libitum to 3% (w/v) dextran sodium sulfate (molecular weight: 36-50 kDa, MP Biomedicals, Santa Ana, CA, USA) dissolved in drinking water. The mouse models are illustrated in FIGS. 7A, 5E, and 6A. DSS solutions were prepared every two days. […] The humane endpoint for weight loss (requiring euthanasia) was 20% (compared to the original body weight of an animal). Without an approved exception request, body weight loss could not exceed 20%.
# The clinical score of colitis was obtained by measuring body weight, fecal occult blood or total blood loss, and stool consistency every other day during the induction of colitis. The clinical score were assessed by two trained investigators who were randomly selected. For immunohistochemical analysis of tissue sections, mouse distal colon tissues were fixed in 10% formalin and embedded in paraffin. Paraffin sections ([…]) were cut and stained with H&E. Histopathological scoring was performed by a certified pathologist (Min-Kyung Kim, Department of Pathology, Kim Min-Kyung Pathology Clinic, Seoul, Korea) who scored each organ section independently without prior knowledge of the treatment group.
# Next, the therapeutic effect of rCT-S100A8/A9 on chronic colitis was confirmed. Chronic DSS colitis was induced by three cycles of DSS+water combination, and intraperitoneal rCT-S100A8/A9 injection was performed once a day for three consecutive days of DSS administration in each cycle.
# [3] = parental and OxaR-HCT116 cells, Western blot
molecule,measurement,setting,value
"TWYKIAFQRNRKTWYKIAFQRNRKTWYKIAFQRNRKTWYKIAFQRNRKTWYKIAFQRNRKGGFLVIKGGAHKSHKGGITIITFGGGHHGGFLVIKGGAHKSHKGGITIITFGGGHHGGFLVIKGGAHKSHKGGITIITFGGGHHGG (protein, N-terminal 6xHis tag) TWYKIAFQRNRKTWYKIAFQRNRKTWYKIAFQRNRKTWYKIAFQRNRKTWYKIAFQRNRKGGFLVIKGGAHKSHKGGITIITFGGGHHGGFLVIKGGAHKSHKGGITIITFGGGHHGGFLVIKGGAHKSHKGGITIITFGGGHHGG",S100-PRR interactions,"OxaR-HCT116; OxaR-HCT116, recombinant S100A8/A9 stimulated, 10, 20, 50 μg/ml",inhibited by increasing the concentration of rCT-S100A8/A9
same,"phosphorylation of EGFR, AKT, and NF-κB",OxaR-HCT116; parental and OxaR CRC cells,decreased
same,expression of epithelial marker (E-cadherin),OxaR-HCT116; [3],increase
same,expression of mesenchymal markers (N-cadherin and vimentin),OxaR-HCT116; [3],significant decrease
same,Stability (% remaining after 30 min) | HLM,[1],92.1 % remaining after 30 min
same,colon damage (H&E staining),[2]; 2.5% DSS chronic colitis,decreased; also recorded: alleviated
same,colon length,[2]; 2.5% DSS chronic colitis,recovered
same,survival rates,[2]; DSS-induced chronic colitis,significantly increased
same,body weight loss,[2]; i.p. once a day for three consecutive days per DSS cycle,significantly reduced body weight loss
same,macrophage polarization (M1/M2 markers),"[2]; macrophages and colonic lysates, real-time PCR",not affected
